Test results: publication PMC5420311 (Nature structural & molecular biology, 2017)

Biological target: phosphoubiquitin (UniProt P0CG48 1-76, phosphorylated by PINK1 (Ser65))
Test: ITC

B1: ΔUBL-Parkin (80-465) (domain or fragment)
chain: MNATGGDDPRNAAGGCEREPQSLTRVDLSSSVLPGDSVGLAVILHTDSRKDSPPAGSPAGRSIYNSFYVYCKGPCQRVQPGKLRVQCSTCRQATLTLTQGPSCWDDVLIPNRMSGECQSPHCPGTSAEFFFKCGAHPTSDKETSVALHLIATNSRNITCITCTDVRSPVLVFQCNSRHVICLDCFHLYCVTRLNDRQFVHDPQLGYSLPCVAGCPNSLIKELHHFRILGEEQYNRYQQYGAEECVLQMGGVLCPRPGCGAGLLPEPDQRKVTCEGGNGLGCGFAFCRECKEAYHEGECSAVFEASGTTTQAYRVDERAAEQARWEAASKETIKKTTKPCPRCHVPVEKNGGCMHMKCPQPQCRLEWCWNCGCEWNRVCMGDHWFDV
binding result: binds
